US20190040102A1 (CDRD VENTURES, published 2019)
Starred links: 1 amine or outer side, 2 acyl side, 3 side chain; linkers in the order of their positions; H or OH if unused. Positions of bridges follow the written chain, without caps; N, C: chain ends. Non-standard residues stand in square brackets, D forms with d. *: point of attachment. dPhe(4-phenylureido) = D-4-(phenylureido)Phe, O=C(Nc1ccccc1)Nc1ccc(C[C@@H](N[*:1])C(=O)[*:2])cc1; thiocarbamate = -NH-(C=O)-S- bridge between side chains (disulfide isostere); dPhe(4-CONH2) = NC(=O)c1ccc(C[C@@H](N)C(=O)O)cc1; Phe(4-Cl) = N[C@@H](Cc1ccc(Cl)cc1)C(=O)O; dDap = NC[C@@H](N)C(=O)O; Dap = NC[C@H](N)C(=O)O; Hexanoyl = CCCCCC(=O)*

Target: somatostatin receptor type 2 (SSTR2) (UniProt P30874 1-369)
Sequence (P30874 whole entry): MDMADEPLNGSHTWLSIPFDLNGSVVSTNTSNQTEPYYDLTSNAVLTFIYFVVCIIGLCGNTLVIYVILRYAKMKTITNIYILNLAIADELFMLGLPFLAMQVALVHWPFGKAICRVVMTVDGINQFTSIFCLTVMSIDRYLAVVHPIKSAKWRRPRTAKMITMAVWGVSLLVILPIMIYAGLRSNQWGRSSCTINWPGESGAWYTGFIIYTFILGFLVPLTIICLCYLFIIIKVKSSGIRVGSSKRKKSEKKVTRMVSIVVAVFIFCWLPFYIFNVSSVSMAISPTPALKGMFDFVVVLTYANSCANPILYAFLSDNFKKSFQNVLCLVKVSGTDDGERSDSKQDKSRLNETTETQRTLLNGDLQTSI
Assay: cell-based or functional assay

| IC50 (PathHunter β-Arrestin, antagonist mode) [nM] | Binder |
| --- | --- |
| > 1000 | H-[Phe(4-Cl)][Dap]Y[dPhe(4-CONH2)]KTC[dY]-NH2 (bridge 2-7 via thiocarbamate) [Compound 61: H-Cpa-cyclo[Dap-Tyr-DPhe(4-CONH2)-Lys-Thr-Cys]-DTyr-NH2] |
| > 1000 | H-[Phe(4-Cl)][dDap]Y[dPhe(4-phenylureido)]KTD[dY]-NH2 (lactam 2-7; not fully specified; printed as H-Cpa-cyclo[DDap-Tyr-Xaa4-Lys-Thr-Asp]-DTyr-NH2) [Compound 70: H-Cpa-cyclo[DDap-Tyr-Xaa4-Lys-Thr-Asp]-DTyr-NH2] |
| > 1000 | H-[Phe(4-Cl)][dC]Y[dPhe(4-CONH2)]KT[Dap][dY]-NH2 (bridge 2-7 via thiocarbamate) [Compound 62: H-Cpa-cyclo[DCys-Tyr-DPhe(4-CONH2)-Lys-Thr-Dap]-DTyr-NH2] |
| 3.65 | {2‑furoyl}-[Phe(4-Cl)][dC]Y[dPhe(4-CONH2)]K(Me)TC[dY]-NH2 (disulfide 2-7) [Compound 57: (Furan-2-carboxy)-Cpa-cyclo[D-Cys-Tyr-D-Phe(4-carbamoyl)-Lys(Nε-Me)-Thr-Cys]-D-Tyr-NH2] |
| 39.1 | XXYXKTCX (HELM PEPTIDE1{[N[C@@H](Cc1ccc(Cl)cc1)C(=O)[*:2]].[dC].Y.[N#Cc1ccc(C[C@@H](N[*:1])C(=O)[*:2])cc1].K.T.C.[dY].[am]}$PEPTIDE1,PEPTIDE1,2:R3-7:R3$$$V2.0; SMILES C[C@@H](O)[C@@H]1NC(=O)[C@H](CCCCN)NC(=O)[C@@H](Cc2ccc(C#N)cc2)NC(=O)[C@H](Cc2ccc(O)cc2)NC(=O)[C@H](NC(=O)[C@@H](N)Cc2ccc(Cl)cc2)CSSC[C@@H](C(=O)N[C@H](Cc2ccc(O)cc2)C(N)=O)NC1=O) [Compound 59: H-Cpa-[DCys-Tyr-DPhe(4-CN)-Lys-Thr-Cys]-DTyr-NH2] |
| 2.36 | {CH3O2C(CH2)2(CO)}-[Phe(4-Cl)][dC]Y[dPhe(4-CONH2)]K(Me)TC[dY]-NH2 (disulfide 2-7) [Compound 58: CH3O2C(CH2)2(CO)-Cpa-cyclo[D-Cys-Tyr-D-Phe(4-carbamoyl)-Lys(Nε-Me)-Thr-Cys]-D-Tyr-NH2] |
| 3.35 | Ac-G[Phe(4-Cl)][dC]Y[dPhe(4-CONH2)]K(Me)TC[dY]-NH2 (disulfide 3-8; SMILES CNCCCC[C@@H]1NC(=O)[C@@H](Cc2ccc(C(N)=O)cc2)NC(=O)[C@H](Cc2ccc(O)cc2)NC(=O)[C@H](NC(=O)[C@H](Cc2ccc(Cl)cc2)NC(=O)CNC(C)=O)CSSC[C@@H](C(=O)N[C@H](Cc2ccc(O)cc2)C(N)=O)NC(=O)[C@H]([C@@H](C)O)NC1=O) [Compound 55: Ac-Gly-Cpa-cyclo[D-Cys-Tyr-D-Phe(4-carbamoyl)-Lys(Nε-Me)-Thr-Cys]-D-Tyr-NH2] |
| > 1000 | H-[Phe(4-Cl)][dDap]Y[dPhe(4-CONH2)]KTC[dY]-NH2 (bridge 2-7 via thiocarbamate) [Compound 60: H-Cpa-cyclo[DDap-Tyr-DPhe(4-CONH2)-Lys-Thr-Cys]-DTyr-NH2] |
| > 1000 | H-[Phe(4-Cl)][dC]Y[dPhe(4-CONH2)]K(Me)T[Dap][dY]-NH2 (bridge 2-7 via thiocarbamate) [Compound 63: H-Cpa-cyclo[DCys-Tyr-DPhe(4-CONH2)-Lys(Me)-Thr-Dap]-DTyr-NH2] |
| > 1000 | H-[Phe(4-Cl)][dDap]Y[dPhe(4-CONH2)]KTD[dY]-NH2 (lactam 2-7; not fully specified; printed as H-Cpa-cyclo[DDap-Tyr-DPhe(4-CONH2)-Lys-Thr-Asp]-DTyr-NH2) [Compound 69: H-Cpa-cyclo[DDap-Tyr-DPhe(4-CONH2)-Lys-Thr-Asp]-DTyr-NH2] |
| 1.6 | Hexanoyl-[Phe(4-Cl)][dC]Y[dPhe(4-CONH2)]K(Me)TC[dY]-NH2 (disulfide 2-7; SMILES CCCCCC(=O)N[C@@H](Cc1ccc(Cl)cc1)C(=O)N[C@@H]1CSSC[C@@H](C(=O)N[C@H](Cc2ccc(O)cc2)C(N)=O)NC(=O)[C@H]([C@@H](C)O)NC(=O)[C@H](CCCCNC)NC(=O)[C@@H](Cc2ccc(C(N)=O)cc2)NC(=O)[C@H](Cc2ccc(O)cc2)NC1=O) [Compound 56: CH3(CH2)4(CO)-Cpa-cyclo[D-Cys-Tyr-D-Phe(4-carbamoyl)-Lys(Nε-Me)-Thr-Cys]-D-Tyr-NH2] |
